Results published in patent US20220363770A1 (Amgen, published 2022).
Changes are numbered by the printed parent chain.

B1: iPS:454791 (bispecific antibody, human IgG1, kappa, lambda, N297G)
light 1: QSVLTQPPSVSAAPGQKVTISCSGSYSNIGRYSVSWYQQLPGTAPKLLIYDNNKRPSGIPDRFSGSKSGTSATLGITGLQTGDEADYYCGTWDSRLSAVVFGGGTKLTVLGQPKAAPSVTLFPPSSEELQANKATLVCLISDFYPGAVTVAWKADSSPVKAGVETTTPSKQSNNKYAAKSYLSLTPEQWKSHRSYSCQVTHEGSTVEKTVAPTECS
heavy 1: QVQLVESGGGVVQPGRSLRLSCAASGFTFSSFGMHWVRQAPGKGLEWVAVISFDGSIKYSVDSVKGRFTISRDNSKNTLFLQMNSLRAEDTAVYYCARDRLNYYESSGYYHYKYYGMAVWGQGTTVTVSSASTKGPSVFPLAPSSKSTSGGTAALGCLVKDYFPEPVTVSWNSGALTSGVHTFPAVLQSSGLYSLESVVTVPSSSLGTQTYICNVNHKPSNTKVDKKVEPKSCDKTHTCPPCPAPELLGGPSVFLFPPKPKDTLMISRTPEVTCVVVDVSHEDPEVKFNWYVDGVEVHNAKTKPCEEQYGSTYRCVSVLTVLHQDWLNGKEYKCKVSNKALPAPIEKTISKAKGQPREPQVYTLPPSRKKMTKNQVSLTCLVKGFYPSDIAVEWESNGQPENNYKTTPPVLKSDGSFFLYSKLTVDKSRWQQGNVFSCSVMHEALHNHYTQKSLSLSPGK
light 2: EIVLTQSPATLSLSPGERATLSCRASKSVGYSLHWYQQKPGQAPRLLIKYASQSLSGIPARFSGSGSGTDFTLTISSLEPEDFAVYYCHQSSRLPFTFGPGTKVDIKRTVAAPSVFIFPPSDEQLKSGTASVVCLLNNFYPREAKVQWKVDNALQSGNSQESVTEQDSKDSTYSLESTLTLSKADYEKHKVYACEVTHQGLSSPVTKSFNRGEC
heavy 2: not shown
B2: iPS:454793 (bispecific antibody, human IgG1, kappa, lambda, N297G)
light 1: B1 light 1 with Y26R, R31I, Y32K, S33A
heavy 1: B1 heavy 1
light 2: B1 light 2 with Y31Q
heavy 2: not shown
B3: iPS:454801 (bispecific antibody, human IgG1, kappa, lambda, N297G)
light 1: B1 light 1 with Y26R, R31I, Y32K, S33A
heavy 1: B1 heavy 1
light 2: B1 light 2 with Y31Q
heavy 2: not shown
B4: iPS:454815 (bispecific antibody, human IgG1, kappa, lambda, N297G)
light 1: B1 light 1 with Y26R, R31I, Y32K, S33A
heavy 1: B1 heavy 1
light 2: B1 light 2 with Y31R
heavy 2: not shown
B5: iPS:454799 (bispecific antibody, human IgG1, kappa, lambda, N297G)
light 1: B1 light 1 with Y26R, R31I, Y32K, S33A
heavy 1: B1 heavy 1
light 2: B1 light 2 with Y31Q
heavy 2: not shown
B6: iPS:454821 (bispecific antibody, human IgG1, kappa, lambda, N297G)
light 1: B1 light 1 with Y26R, R31I, Y32K, S33A
heavy 1: B1 heavy 1
light 2: B1 light 2 with Y31R
heavy 2: not shown
B7: iPS:454817 (bispecific antibody, human IgG1, kappa, lambda, N297G)
light 1: B1 light 1 with Y26R, R31I, Y32K, S33A
heavy 1: B1 heavy 1
light 2: B1 light 2 with Y31R
heavy 2: not shown
B8: iPS:454795 (bispecific antibody, human IgG1, kappa, lambda, N297G)
light 1: B1 light 1 with Y26R, R31I, Y32K, S33A
heavy 1: B1 heavy 1
light 2: B1 light 2 with S28A, G30W, Y31H, S32N, R93M
heavy 2: not shown
B9: iPS:454797 (bispecific antibody, human IgG1, kappa, lambda, N297G)
light 1: B1 light 1 with Y26R, R31I, Y32K, S33A
heavy 1: B1 heavy 1
light 2: B1 light 2 with K27R, Y31L, S32A, R93F
heavy 2: not shown
B10: iPS:454811 (bispecific antibody, human IgG1, kappa, lambda, N297G)
light 1: B1 light 1 with Y26R, R31I, Y32K, S33A
heavy 1: B1 heavy 1
light 2: EIVLTQSPATLSLSPGERATLSCRASRAVSNLHWYQQKPGQAPRLLIKYASQSLSGIPARFSGSGSGTDFTLTISSLEPEDFAVYYCHQSSYLPFTFGPGTKVDIKRTVAAPSVFIFPPSDEQLKSGTASVVCLLNNFYPREAKVQWKVDNALQSGNSQESVTEQDSKDSTYSLESTLTLSKADYEKHKVYACEVTHQGLSSPVTKSFNRGEC
heavy 2: not shown
B11: iPS:454809 (bispecific antibody, human IgG1, kappa, lambda, N297G)
light 1: B1 light 1 with Y26R, R31I, Y32K, S33A
heavy 1: B1 heavy 1
light 2: B1 light 2 with S28A, Y31F, R93F
heavy 2: not shown
B12: iPS:454813 (bispecific antibody, human IgG1, kappa, lambda, N297G)
light 1: B1 light 1 with Y26R, R31I, Y32K, S33A
heavy 1: B1 heavy 1
light 2: B1 light 2 with Y31R
heavy 2: not shown
B13: iPS:454805 (bispecific antibody, human IgG1, kappa, lambda, N297G)
light 1: B1 light 1 with Y26R, R31I, Y32K, S33A
heavy 1: B1 heavy 1
light 2: B1 light 2 with Y31Q
heavy 2: not shown
B14: iPS:454819 (bispecific antibody, human IgG1, kappa, lambda, N297G)
light 1: B1 light 1 with Y26R, R31I, Y32K, S33A
heavy 1: B1 heavy 1
light 2: B1 light 2 with Y31R
heavy 2: not shown
B15: iPS:454807 (bispecific antibody, human IgG1, kappa, lambda, N297G)
light 1: B1 light 1 with Y26R, R31I, Y32K, S33A
heavy 1: B1 heavy 1
light 2: B1 light 2 with Y31Q
heavy 2: not shown
B16: iPS:454803 (bispecific antibody, human IgG1, kappa, lambda, N297G)
light 1: B1 light 1 with Y26R, R31I, Y32K, S33A
heavy 1: B1 heavy 1
light 2: B1 light 2 with Y31W
heavy 2: not shown

Molecular target: human CGRP receptor (human, UniProt Q16602 23-461; O60894 27-148)
Test: cell-based or functional assay

Chain of human CGRP receptor (Q16602 23-461 limits assumed, chain 1 of 2): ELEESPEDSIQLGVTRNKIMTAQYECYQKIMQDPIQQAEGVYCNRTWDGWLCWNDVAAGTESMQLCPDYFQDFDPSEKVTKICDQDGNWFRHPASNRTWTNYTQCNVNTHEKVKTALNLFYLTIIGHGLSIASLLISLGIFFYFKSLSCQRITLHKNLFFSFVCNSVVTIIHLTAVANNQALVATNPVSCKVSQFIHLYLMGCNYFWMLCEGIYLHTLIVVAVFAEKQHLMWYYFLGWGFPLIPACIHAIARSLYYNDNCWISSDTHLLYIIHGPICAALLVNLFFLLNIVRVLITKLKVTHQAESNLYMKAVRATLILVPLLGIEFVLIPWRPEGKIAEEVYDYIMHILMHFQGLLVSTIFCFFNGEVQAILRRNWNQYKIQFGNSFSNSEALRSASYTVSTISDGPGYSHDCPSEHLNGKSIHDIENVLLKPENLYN
Chain of human CGRP receptor (O60894 27-148 limits assumed, chain 2 of 2): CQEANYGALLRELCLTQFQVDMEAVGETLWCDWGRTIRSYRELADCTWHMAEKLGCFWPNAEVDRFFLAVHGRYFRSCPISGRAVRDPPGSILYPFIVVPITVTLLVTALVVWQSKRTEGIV

First: B1
Second: B2
The “Fold-improvement over 4E4 Ab” value of the first is lower: 1.2 fold for the first, 1.3 fold for the second.

Going from B3 to B4, the “Fold-improvement over 4E4 Ab” value rises from 1.2 fold to 1.6 fold.

Compared with B5, B6 is lower in “Fold-improvement over 4E4 Ab” value: 1.6 fold for the first, 1.5 fold for the second.

Compared with B7, B8 is lower in “Fold-improvement over 4E4 Ab” value: 1.7 fold for the first, 1.4 fold for the second.

First: B9
Second: B10
The “Fold-improvement over 4E4 Ab” value of the first is higher: 2.6 fold for the first, 1 fold for the second.

B11 and B12 are the same in “Fold-improvement over 4E4 Ab” value: 0.8 fold for the first, 0.8 fold for the second.

First: B13
Second: B14
The “Fold-improvement over 4E4 Ab” value of the first is lower: 1 fold for the first, 1.8 fold for the second.

First: B15
Second: B16
The “Fold-improvement over 4E4 Ab” value of the first is lower: 0.9 fold for the first, 1.2 fold for the second.

B1 and B2 are within 1.5-fold of each other in “IC50” value: 0.44 nM for the first, 0.39 nM for the second.

B3 and B4 are within 1.5-fold of each other in “IC50” value: 0.44 nM for the first, 0.37 nM for the second.

B5 and B6 are within 1.5-fold of each other in “IC50” value: 0.32 nM for the first, 0.39 nM for the second.

B7 and B8 are within 1.5-fold of each other in “IC50” value: 0.33 nM for the first, 0.37 nM for the second.

First: B9
Second: B10
The “IC50” value of the first is 2.6-fold lower: 0.2 nM for the first, 0.53 nM for the second.

B11 and B12 are within 1.5-fold of each other in “IC50” value: 0.64 nM for the first, 0.61 nM for the second.

First: B13
Second: B14
The “IC50” value of the first is 1.6-fold higher: 0.52 nM for the first, 0.33 nM for the second.

B15 and B16 are within 1.5-fold of each other in “IC50” value: 0.56 nM for the first, 0.44 nM for the second.

Molecular target: T1, human PAC1 receptor (human, UniProt P41586 24-468)
T1 sequence: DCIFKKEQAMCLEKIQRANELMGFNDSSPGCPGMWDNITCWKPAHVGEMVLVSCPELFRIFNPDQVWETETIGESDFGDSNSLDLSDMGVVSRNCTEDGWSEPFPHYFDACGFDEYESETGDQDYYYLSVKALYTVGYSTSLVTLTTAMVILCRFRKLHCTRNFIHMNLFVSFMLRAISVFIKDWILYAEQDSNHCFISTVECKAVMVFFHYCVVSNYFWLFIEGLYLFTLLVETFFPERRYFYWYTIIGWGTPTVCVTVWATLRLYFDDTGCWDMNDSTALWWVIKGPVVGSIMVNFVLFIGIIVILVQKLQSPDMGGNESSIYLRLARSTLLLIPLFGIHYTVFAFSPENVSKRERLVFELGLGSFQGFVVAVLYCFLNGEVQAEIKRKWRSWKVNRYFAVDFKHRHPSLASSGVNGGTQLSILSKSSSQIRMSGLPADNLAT
Test: cell-based or functional assay

Compared with B1, B2 is lower in “Fold-improvement over 29G4v22 Ab” value: 7.1 fold for the first, 6 fold for the second.

First: B3
Second: B4
The “Fold-improvement over 29G4v22 Ab” value of the first is lower: 4.4 fold for the first, 10.1 fold for the second.

First: B5
Second: B6
The “Fold-improvement over 29G4v22 Ab” value of the first is lower: 4.1 fold for the first, 9.2 fold for the second.

Compared with B7, B8 is lower in “Fold-improvement over 29G4v22 Ab” value: 10.7 fold for the first, 2 fold for the second.

Going from B9 to B10, the “Fold-improvement over 29G4v22 Ab” value falls from 5.4 fold to 2.8 fold.

First: B11
Second: B12
The “Fold-improvement over 29G4v22 Ab” value of the first is lower: 4 fold for the first, 9.9 fold for the second.

Going from B13 to B14, the “Fold-improvement over 29G4v22 Ab” value rises from 6.9 fold to 9.6 fold.

First: B15
Second: B16
The “Fold-improvement over 29G4v22 Ab” value of the first is lower: 5.4 fold for the first, 8.7 fold for the second.

B1 and B2 are within 1.5-fold of each other in “IC50” value: 0.79 nM for the first, 1.09 nM for the second.

Going from B3 to B4, the “IC50” value falls from 1.82 nM to 0.65 nM (2.8-fold).

Going from B5 to B6, the “IC50” value falls from 1.59 nM to 0.72 nM (2.2-fold).

Compared with B7, B8 is 5.3-fold higher in “IC50” value: 0.62 nM for the first, 3.26 nM for the second.

Going from B9 to B10, the “IC50” value rises from 1.21 nM to 2.85 nM (2.4-fold).

Going from B11 to B12, the “IC50” value falls from 2.01 nM to 0.81 nM (2.5-fold).

Compared with B13, B14 is 1.7-fold lower in “IC50” value: 1.16 nM for the first, 0.69 nM for the second.

First: B15
Second: B16
The “IC50” value of the first is 1.6-fold higher: 1.48 nM for the first, 0.92 nM for the second.
